B1: Pistol ribozyme (parent)
chain: GGGUCGUUGUUCCAUAAUCGCGUGGAUAUGGCACGCAAGUUUCUACCGGGCACCGUAAAUGUCCGACUGGAGCCGUUCGGGCGGCUAUAAACAGACCUCAGGCCCGAAGCGUGGCGGCACCUGCCGCCGGUGGUAAAAAAGAUCGGAAGAGCACACGUCU

Variants of: B1
Assay: aptazyme ON/OFF ratio, guanine; higher = stronger switching; co-transcriptional cleavage with and without guanine

Going from U7A U8C G9U U10A U11C C13U to U7A U8C G9C U11C C12U C13A, the “aptazyme ON/OFF ratio” value falls from 1.06 to 1.04.

First: U7A U8C G9C U11C C12U C13G
Second: U7A U8C G9C U11C C12U C13U
The “aptazyme ON/OFF ratio” value of the first is higher: 1.09 for the first, 1.06 for the second.

Compared with U7A U8C G9C U10C C12G C13A, U7A U8C G9C U10C C12G C13G is higher in “aptazyme ON/OFF ratio” value: 1.04 for the first, 1.12 for the second.

Compared with U7A U8C G9C U10C C12G C13U, U7A U8C G9C U10G U11C C13G is higher in “aptazyme ON/OFF ratio” value: 1.08 for the first, 1.33 for the second.

Compared with U7A U8C G9C U10G U11C C13U, U7A U8C G9C U10G U11C C13A is higher in “aptazyme ON/OFF ratio” value: 1.1 for the first, 1.21 for the second.

Compared with U7A U8C G9C U10G U11A C12U, U7A U8C G9C U10G U11A C12G is higher in “aptazyme ON/OFF ratio” value: 1.04 for the first, 1.11 for the second.

Compared with U7A U8C G9C U10G U11A C12A, U7A U8C G9C U10C C12U C13U is lower in “aptazyme ON/OFF ratio” value: 1.26 for the first, 1.04 for the second.

Compared with U7A U8C G9C U10C C12U C13G, U7A U8C G9C U10C C12U C13A is lower in “aptazyme ON/OFF ratio” value: 1.06 for the first, 1.04 for the second.

First: U7A U8C G9C U10C C12A C13G
Second: U7A U8C G9C U10C C12A C13A
The “aptazyme ON/OFF ratio” value of the first is higher: 1.13 for the first, 1.03 for the second.

First: U7A U8C G9C U10C C12A C13U
Second: U7A U8C G9C U10A U11C C12G C13G
The “aptazyme ON/OFF ratio” value of the first is lower: 0.999 for the first, 1.27 for the second.

Compared with U7A U8C G9C U10A U11C C12G C13A, U7A U8C G9C U10A U11C C12G C13U is lower in “aptazyme ON/OFF ratio” value: 1.29 for the first, 1.27 for the second.

Compared with U7A U8C G9C U10A C13G, U7A U8C G9C U10A C13U is lower in “aptazyme ON/OFF ratio” value: 1.07 for the first, 1.06 for the second.

Compared with U7A U8C G9C U10A C13A, U7A U8C G9C U10G U11C is higher in “aptazyme ON/OFF ratio” value: 1.09 for the first, 1.1 for the second.

Going from U7A U8C G9C U10G U11A to U7A U8C G9C U10G U11G, the “aptazyme ON/OFF ratio” value rises from 1.04 to 1.06.

Compared with U7A U8C G9U U10A U11A C13U, U7A U8C G9U U10A U11A C13A is higher in “aptazyme ON/OFF ratio” value: 1.16 for the first, 1.17 for the second.

Going from U7A U8C G9U U10A U11A C13G to U7A U8C G9C U10G U11C C12A, the “aptazyme ON/OFF ratio” value rises from 1.08 to 1.1.

Compared with U7A U8C G9C U10G U11C C12U, U7A U8C G9C U10G U11C C12G is higher in “aptazyme ON/OFF ratio” value: 1.09 for the first, 1.21 for the second.

U7A U8C G9C U10C C13A and U7A U8C G9C U10C C13U are the same in “aptazyme ON/OFF ratio” value: 1.06 for the first, 1.06 for the second.

Going from U7A U8C G9C U10C C13G to U7A U8C G9C U10A U11C C12A C13U, the “aptazyme ON/OFF ratio” value rises from 1.07 to 1.14.

Going from U7A U8C G9C U10A U11C C12A C13G to U7A U8C G9C U10A U11C C12A C13A, the “aptazyme ON/OFF ratio” value falls from 1.16 to 1.15.

Compared with U7A U8C G9U, U7A U8C G9U C12G C13A is lower in “aptazyme ON/OFF ratio” value: 1.94 for the first, 1.23 for the second.

First: U7A U8C G9U C12G C13U
Second: U7A U8C G9U C12G C13G
The “aptazyme ON/OFF ratio” value of the first is higher: 1.37 for the first, 1.16 for the second.

Compared with U7A U8C G9C U10G U11A C12A C13G, U7A U8C G9C U10G U11A C12A C13U is lower in “aptazyme ON/OFF ratio” value: 1.16 for the first, 1.06 for the second.

Compared with U7A U8C G9C U10G U11A C12A C13A, U7A U8C G9U U10C C12A C13U is higher in “aptazyme ON/OFF ratio” value: 1.03 for the first, 1.26 for the second.

Compared with U7A U8C G9U U10C C12A C13G, U7A U8C G9U U10C C12A C13A is lower in “aptazyme ON/OFF ratio” value: 1.29 for the first, 1.14 for the second.

First: U7A U8C G9C C12U C13U
Second: U7A U8C G9C C12U C13G
The “aptazyme ON/OFF ratio” value of the first is higher: 1.14 for the first, 1.06 for the second.

First: U7A U8C G9C C12U C13A
Second: U7A U8C G9C U10A C12A C13U
The “aptazyme ON/OFF ratio” value of the first is lower: 1.08 for the first, 1.09 for the second.

First: U7A U8C G9C U10A C12A C13G
Second: U7A U8C G9C U10A C12A C13A
The “aptazyme ON/OFF ratio” value of the first is higher: 1.08 for the first, 1 for the second.

Compared with U7A U8C G9U U10A U11C, U7A U8C G9U U10A U11G is higher in “aptazyme ON/OFF ratio” value: 1.01 for the first, 1.31 for the second.

First: U7A U8C G9U U10A U11A
Second: U7A U8C G9C U10C U11C
The “aptazyme ON/OFF ratio” value of the first is higher: 1.37 for the first, 0.989 for the second.

U7A U8C G9C U10C U11G and U7A U8C G9C U10C U11A are the same in “aptazyme ON/OFF ratio” value: 1.03 for the first, 1.03 for the second.

Compared with U7A U8C G9C U10A C12U C13A, U7A U8C G9C U10A C12U C13G is higher in “aptazyme ON/OFF ratio” value: 1.05 for the first, 1.07 for the second.

Compared with U7A U8C G9C U10A C12U C13U, U7A U8C G9C U11A C12G C13A is higher in “aptazyme ON/OFF ratio” value: 1.07 for the first, 1.09 for the second.

First: U7A U8C G9C U11A C12G C13U
Second: U7A U8C G9C U11A C12G C13G
The “aptazyme ON/OFF ratio” value of the first is lower: 1.13 for the first, 1.16 for the second.

U7A U8C G9U U10A U11A C12A C13U and U7A U8C G9U U10A U11A C12A C13G are the same in “aptazyme ON/OFF ratio” value: 1.22 for the first, 1.22 for the second.

First: U7A U8C G9U U10A U11A C12A C13A
Second: U7A U8C G9U U10A U11A C12U
The “aptazyme ON/OFF ratio” value of the first is higher: 1.17 for the first, 1.12 for the second.

Compared with U7A U8C G9U U10A U11A C12G, U7A U8C G9U U10A U11A C12A is higher in “aptazyme ON/OFF ratio” value: 1.27 for the first, 1.28 for the second.

Going from U7A U8C G9C U10C U11A C12G to U7A U8C G9C U10C U11A C12A, the “aptazyme ON/OFF ratio” value rises from 1.02 to 1.07.

Compared with U7A U8C G9C U10C U11A C12U, U7A U8C G9C U10G U11A C13G is higher in “aptazyme ON/OFF ratio” value: 1.03 for the first, 1.1 for the second.

First: U7A U8C G9C U10G U11A C13A
Second: U7A U8C G9C U10G U11A C13U
The “aptazyme ON/OFF ratio” value of the first is higher: 1.05 for the first, 1.02 for the second.

Compared with U7A U8C G9U U10A U11A C12U C13A, U7A U8C G9U U10A U11A C12U C13U is lower in “aptazyme ON/OFF ratio” value: 1.21 for the first, 1.16 for the second.

Going from U7A U8C G9U U10A U11A C12U C13G to U7A U8C G9C U11G C12A, the “aptazyme ON/OFF ratio” value falls from 1.12 to 1.08.
